Laboratory results published in paper PMC3951439.

Target: EZH2 subunit of purified human PRC2 (human) (UniProt Q15910)
Sequence (Q15910 whole entry): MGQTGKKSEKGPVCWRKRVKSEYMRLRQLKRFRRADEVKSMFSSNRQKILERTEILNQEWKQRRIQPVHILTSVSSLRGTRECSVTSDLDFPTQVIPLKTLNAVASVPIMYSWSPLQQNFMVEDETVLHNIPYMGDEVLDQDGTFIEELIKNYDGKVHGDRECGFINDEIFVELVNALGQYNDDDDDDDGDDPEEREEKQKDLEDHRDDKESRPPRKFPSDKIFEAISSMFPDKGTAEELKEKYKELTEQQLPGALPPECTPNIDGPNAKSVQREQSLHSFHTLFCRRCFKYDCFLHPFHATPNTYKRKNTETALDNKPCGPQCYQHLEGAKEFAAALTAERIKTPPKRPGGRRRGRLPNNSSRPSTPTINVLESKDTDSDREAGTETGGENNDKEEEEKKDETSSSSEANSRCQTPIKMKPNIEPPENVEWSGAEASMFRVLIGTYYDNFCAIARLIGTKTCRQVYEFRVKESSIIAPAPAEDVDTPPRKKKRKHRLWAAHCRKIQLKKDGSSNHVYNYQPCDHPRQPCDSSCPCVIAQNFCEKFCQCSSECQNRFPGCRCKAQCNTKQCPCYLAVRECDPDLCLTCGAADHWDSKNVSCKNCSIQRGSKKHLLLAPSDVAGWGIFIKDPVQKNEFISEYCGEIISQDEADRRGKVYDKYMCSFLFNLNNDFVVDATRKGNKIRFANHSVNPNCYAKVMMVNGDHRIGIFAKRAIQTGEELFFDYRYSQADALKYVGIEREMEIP

IC50 of inhibition of PRC2 methyltransferase activity in vitro, peptide titrated: 8.9 µM
Substance: H3 peptide (18 to 37) containing K27Ile (from UniProt P84243 19-38)
